Where “and” joins values, the source holds several entries; their conditions need not be identical. Equal entries are not always repeated.
T1: recombinant purified human CD27 (human, UniProt P26842 20-191)
T1 construct: also called soluble or recombinant human CD27
T1 sequence: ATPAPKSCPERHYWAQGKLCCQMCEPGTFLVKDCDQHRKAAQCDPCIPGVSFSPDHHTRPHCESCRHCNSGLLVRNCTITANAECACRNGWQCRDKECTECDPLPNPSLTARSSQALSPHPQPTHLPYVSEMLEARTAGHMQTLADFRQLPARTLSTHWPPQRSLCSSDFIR


Assays:
[1] = biological target: T2, purified recombinant monkey (macaque) CD27 (macaque); assay: ELISA on plate-bound monkey CD27, half-max binding
T2 construct: The paragraph speaks of cynomolgus macaques as the model; the protein itself is only called macaque / monkey CD27; Captured with anti-Flag antibody in one format; also called monkey CD27

[2] = biological target: T1, recombinant purified human CD27; assay: ELISA on CD27-coated plates, half-max binding (C value of 4-parameter fit)
Description: Microtiter plates were coated with soluble or recombinant human or macaque CD27 in PBS, and then blocked with 5% bovine serum albumin in PBS. Protein A purified human mAbs and an isotype control were added at […] concentrations and incubated at 37° C. The plates were washed with PBS/Tween and then incubated with a goat-anti-human IgG Fc-specific polyclonal reagent conjugated to alkaline phosphatase at 37° C. After washing, the plates were developed with pNPP substrate (1 mg/ml), and analyzed at OD 405-650 using a microtiter plate reader.

Binder | EC50 [1] [µg/mL] | EC50 [2]
2G9-1D11 (antibody, V domains shown, Human IgG from hybridoma) VH: QVQLVESGGGVVQPGRSLRLSCAASGFTLSSHDIHWVRQAPGKGLEWVAVIWNDGSNKYYADSVKGRFTISRDNSTNSLFLQMNSLRAEDTAVYYCVRGTADLEHWDQGTLVTVSS VL: DIQMTQSPSSLSASVGDRVTITCRASQGISSWLAWYQQKPEKAPKSLIYAASSLQSGVPSRFSGSGSGTDFTLTISSLQPEDFATYYCQQYNSYPLTFGGGTKVEIK | 0.069 | 0.43 nM and 0.064 µg/mL
3A10-G10 (antibody, V domains shown, Human IgG from hybridoma; also called 3A10-1G10) VH: QVQLVESGGGVVQPGRSLRLSCAASGFTFSHYGMHWVRQAPGKGPEWVAIIWYDGSNKYYADSVKGRFTISRDNSKNTLDLQMNSLRAEDTAVYYCARDGWTTMVRGLNVFDIWGQGTMVTVSS VL: DIQMTQSPSSLSASVGDRVTITCRASQDISSWLAWYQQKPEKAPKSLIYAASSLQSGVPSRFSGSGSGTDFTLTISSLQPEDFATYYCQQYNSYPPTFGQGTRLEIK | – | 0.63 nM and 0.094 µg/mL
2C2-1A10 (antibody, V domains shown, Human IgG from hybridoma) VH: QVQLVESGGGVVQPGRSLRLSCAASGFTFSSYDIHWVRQAPGKGLEWVAVIWNDGSNKYYADSVKGRFTISRDNSTNSLFLQMNSLRAEDTAVYYCVGGTADLEHWDQGTLVTVSS VL: DIQMTQSPSSLSASVGDRVTITCRASQGISSWLAWYQQKPEKAPKSLIYAASSLQSGVPSRFSGSGSGTDFTLTISSLQPEDFATYYCQQYNSYPLTFGGGTKVEIK | 0.034 | 0.3 nM and 0.045 µg/mL
1G5-1B9 (antibody, V domains shown, Human IgG from hybridoma) VH: QVQLVESGGGVVQPGRSLRLSCAASGFSFSSYGMHWVRQAPGKGLEWVALLWYDGSHKDFADSVKGRFTISRDNSKNTLDLQMNSLRAEDTAVYYCAREGLAVPGHWYFDLWGRGTLVTVSS VL: AIQLTQSPSSLSASVGDRVTITCRASQGISSALAWYQQKPGKAPKLLIYDASSLESGVPSRFSGSGSGTDFTLTISSLQPEDFATYYCQQFNTYPRTFGQGTKVEIK | 0.065 | 0.49 nM and 0.074 µg/mL
1H8-B4 (antibody, V domains shown, Human IgG from hybridoma) VH: QVQLVESGGGVVQPGRSLRLSCAASGFTFNIYDMHWVRQAPGKGLEWVAVIWYDGSNQYYADSVKGRFTISRDNSKNTLYLQMNILRAEDTAVYYCARGTHWGYFDYWGQGTLVTVSS VL: DIQMTQSPSSLSASVGDRVTITCRASQGISSWLAWYQQKPEKAPKSLIYAASNLQSGVPSRFSGSGSGTDFTLTISSLQPEDFATYYCQQYNSYPRTFGQGTKVEIK | 0.105 | 0.43 nM and 0.064 µg/mL
1F5-1H5 (antibody, V domains shown, Fully human IgG from HuMAb mouse hybridoma, protein A purified; Human IgG1 is used as its isotype control; also called mAb 1F5; anti-CD27 mAb 1F5) VH: QVQLVESGGGVVQPGRSLRLSCAASGFTFSSYDMHWVRQAPGKGLEWVAVIWYDGSNKYYADSVKGRFTISRDNSKNTLYLQMNSLRAEDTAVYYCARGSGNWGFFDYWGQGTLVTVSS VL: DIQMTQSPSSLSASVGDRVTITCRASQGISRWLAWYQQKPEKAPKSLIYAASSLQSGVPSRFSGSGSGTDFTLTISSLQPEDFATYYCQQYNTYPRTFGQGTKVEIK | 0.12 | 0.39 nM and 0.059 µg/mL
3H12-1E12 (antibody, V domains shown, Human IgG from hybridoma; Two subclones (3H12-1C8 and 3H12-1E12) are both called 3H12; also called 3H12-1C8) VH: QVQLVESGGGVVQPGRSLRLSCATSGFTFSSYDMHWVRQAPGKGLEWVAVIWYDGSNKYYADSVKGRFTISRDNSKNTLYLQMNSLGDEDTAVYYCARGSGNWGFFDYWGQGTLVTVSS VL: DIQMTQSPSSLSASVGDRVTITCRASQGISRWLAWYQQKPEKAPKSLIYAASSLQSGVPSRFSGSGSGTDFTLTISSLQPEDFATYYCQQYNTYPRTFGQGTKVEIK | 0.123 | 0.57 nM and 0.085 µg/mL
3H8-1B11 (antibody, V domains shown, Human IgG from hybridoma) VH: EVQLVESGGGLVQPGGSLRLSCAASGFTFSSYWMAWVRQAPGKGLEWLGNIKQDGSEKYYVDSVKGRFTISRDNAKNSLYLQMNSLRAEDTAVYYCVRELGMDWYFDLWGRGTLVTVSS VL: EIVLTQSPATLSLSPGERATLSCRASQSVDSYLAWYQQKPGQAPRLLIYDASNRATGIPARFSGSGSGTDFTLTISNLEPEDFAVYYCQQRSNWPPTFGQGTKVEIK | 0.065 | 0.46 nM and 0.069 µg/mL
